Data as given in patent US20220251222A1 (Johns Hopkins, published 2022).

Experiments:
[1] = target: T1, human IL-6Rα extracellular domain (ECD), residues 89-303 of the mature protein, with C-terminal biotin … (human, UniProt P08887 108-322, biotinylated with BirA ligase on the biotin acceptor peptide); experiment: BLI equilibrium titration, biotinylated IL-6Rα ECD on streptavidin tips; bivalent IgG, BLI on recombinant IL-6Rα
T1 construct: range 89-303; The range 89-303 counts on the mature protein, not on the precursor; Any linkers between the ECD, BAP and His tag are not described; also called IL-6Rα ECD; recombinant IL-6Rα
T1 sequence: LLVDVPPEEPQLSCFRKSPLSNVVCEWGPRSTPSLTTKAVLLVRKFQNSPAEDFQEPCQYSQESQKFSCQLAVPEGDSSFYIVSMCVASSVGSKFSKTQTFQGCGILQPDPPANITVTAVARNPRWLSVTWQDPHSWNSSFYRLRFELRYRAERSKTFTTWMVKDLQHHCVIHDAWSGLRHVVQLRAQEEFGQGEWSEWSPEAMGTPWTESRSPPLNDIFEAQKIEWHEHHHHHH
Description: Biotinylated human IL-6Rα ECD was immobilized to streptavidin-coated tips for analysis on an Octet® Red96 BLI instrument (ForteBio). Less than 5 signal units (nm) of receptor was immobilized to minimize mass transfer effects. Tips were exposed to serial dilutions of the anti-IL-6R antibody tocilizumab, the anti-IL-8R antibody 10H2, BS1, or BS2 in a 96-well plate for 300 s and dissociation was measured for 600 s. Surface regeneration for all interactions was conducted using 15 s exposure to 0.1 M glycine pH 3.0. Experiments were carried out in PBSA (phosphate-buffered saline [PBS] pH 7.3 plus 0.1% bovine serum albumin [BSA, Thermo]) at 25° C. Data was visualized and processed using the Octet® Data Analysis software version 7.1 (ForteBio). Equilibrium titration curve fitting and equilibrium dissociation constant (KD) value determination was implemented in GraphPad Prism software using a first-order logistic model. Experiments were reproduced two times with similar results.
To confirm functionality of our bispecific agents, antibodies were titrated against recombinant IL-6Rα via BLI. […] Moreover, both tocilizumab-containing engineered bispecific binding agents also bound IL-6Rα (FIG. 5).

[2] = target: T2, IL-8RB expressed on lentivirally transduced HEK 293T cells (UniProt P25025 1-360, limits assumed); experiment: flow cytometry titration on IL-6Rα-/IL-8R+ HEK 293T cells; IL-6Rα-/IL-8R+ 293T cells (FIG. 7B)
T2 construct: whole, on cells; also called IL-8R^+ cells; IL-6Rα^-/IL-8R^+ HEK 293T cells
T2 sequence (looked up): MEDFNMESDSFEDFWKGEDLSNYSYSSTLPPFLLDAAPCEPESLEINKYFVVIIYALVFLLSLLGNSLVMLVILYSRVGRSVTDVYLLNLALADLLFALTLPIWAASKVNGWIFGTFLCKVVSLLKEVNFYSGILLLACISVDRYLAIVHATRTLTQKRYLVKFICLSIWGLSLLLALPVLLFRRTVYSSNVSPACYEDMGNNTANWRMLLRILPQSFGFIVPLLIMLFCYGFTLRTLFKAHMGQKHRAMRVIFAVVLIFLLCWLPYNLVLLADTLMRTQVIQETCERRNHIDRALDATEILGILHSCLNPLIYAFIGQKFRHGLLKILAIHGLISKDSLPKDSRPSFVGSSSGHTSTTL
Description: (§1) HEK 293T cells were cultured in Dulbecco's modified Eagle's medium (DMEM, Mediatech) supplemented with 10% (Hyclone), 2 mM L-glutamine and 100 U/mL penicillin-streptomycin (Gibco). For surface binding assays, IL-6Rα⁺/IL-8R⁻, IL-6Rα⁻/IL-8R⁺, IL-6Rα⁺/IL-8R⁺, and […] HEK 293T cells were trypsinized for detachment, resuspended in PBSA, and then aliquoted into 96-well plates (1×10⁵ cells per well). Cells were incubated with titrations of various monoclonal or bispecific antibodies for 2 hr at 4° C. with rotation. Cells were then washed and incubated with a 1:50 dilution of fluorescein isothiocyanate (FITC)-conjugated anti-human IgG1 antibody (Sigma-Aldrich, Clone 8c/6-39) in PBSA for 15 min at 4° C. After a final wash, cells were resuspended in PBSA and analyzed on a CytoFLEX flow cytometer (Beckman Coulter). Binding isotherms were fitted to a first-order logistic model and KD values were calculated using GraphPad Prism data analysis software. Mean fluorescence intensity (MFI) of unstimulated cells was subtracted. […]
(§2) To determine whether engineered bispecific binding agents BS1 and BS2 specifically engage target antigens in a physiologically relevant context, antibody binding to IL-6Rα⁺/IL-8R⁻, IL-6Rα⁻/IL-8R⁺, IL-6Rα⁺/IL-8R⁺, and IL-6Rα⁻/IL-8R⁻ lentivirally transduced HEK 293T cells was measured via flow cytometry. […]

[3] = target: T3, IL-6Rα and IL-8R co-expressed on IL-6Rα^+/IL-8R^+ HEK 293T cells (UniProt P08887 20-468; P25025 1-360, limits assumed); experiment: flow cytometry titration on IL-6Rα+/IL-8R+ HEK 293T cells (both targets present); IL-6Rα+/IL-8R+ 293T cells, both targets present (FIG. 7C)
T3 construct: whole, on cells; Not a complex: two separate receptors on the same cell; also called IL-6Rα^+/IL-8R^+ 293T cells
T3 sequence (looked up) 1: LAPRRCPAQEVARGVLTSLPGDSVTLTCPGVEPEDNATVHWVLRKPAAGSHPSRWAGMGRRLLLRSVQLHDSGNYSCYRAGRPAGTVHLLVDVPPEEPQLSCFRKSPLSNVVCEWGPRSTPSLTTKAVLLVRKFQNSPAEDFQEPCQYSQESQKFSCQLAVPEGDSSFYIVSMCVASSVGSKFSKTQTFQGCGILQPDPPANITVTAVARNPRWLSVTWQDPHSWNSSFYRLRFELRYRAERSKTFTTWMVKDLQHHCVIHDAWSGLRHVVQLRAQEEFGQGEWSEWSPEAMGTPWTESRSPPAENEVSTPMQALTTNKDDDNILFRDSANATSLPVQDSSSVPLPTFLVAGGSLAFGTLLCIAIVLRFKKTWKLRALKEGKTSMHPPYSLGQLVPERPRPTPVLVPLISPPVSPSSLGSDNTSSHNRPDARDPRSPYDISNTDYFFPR
T3 sequence (looked up) 2: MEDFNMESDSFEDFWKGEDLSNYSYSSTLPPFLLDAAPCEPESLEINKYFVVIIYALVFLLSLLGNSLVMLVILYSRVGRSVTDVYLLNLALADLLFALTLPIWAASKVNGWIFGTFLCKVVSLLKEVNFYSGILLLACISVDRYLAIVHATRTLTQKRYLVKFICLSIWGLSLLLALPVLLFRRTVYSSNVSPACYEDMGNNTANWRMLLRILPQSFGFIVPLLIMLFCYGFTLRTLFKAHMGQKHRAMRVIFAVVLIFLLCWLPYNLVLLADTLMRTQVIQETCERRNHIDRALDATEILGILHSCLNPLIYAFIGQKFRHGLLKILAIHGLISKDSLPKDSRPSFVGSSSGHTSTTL
Description: as §1, §2

B1: tocilizumab, recombinant monoclonal hIgG1 (anti-IL-6Rα) (antibody, V domains shown)
VH: EVQLQESGPGLVRPSQTLSLTCTVSGYSITSDHAWSWVRQPPGRGLEWIGYISYSGITTYNPSLKSRVTMLRDTSKNQFSLRLSSVTAADTAVYYCARSLARTTAMDYWGQGSLVTVSS
VL: DIQMTQSPSSLSASVGDRVTITCRASQDISSYLNWYQQKPGKAPKLLIYYTSRLHSGVPSRFSGSGSGTDFTFTISSLQPEDIATYYCQQGNTLPYTFGQGTKVEIK
notes: also called anti-IL-6Rα antibody
[1]
  Kd: 28 nM

B2: BS2 bispecific antibody (scFv-IgG fusion: 10H2 IgG with tocilizumab scFv on the light chains) (bispecific antibody)
heavy: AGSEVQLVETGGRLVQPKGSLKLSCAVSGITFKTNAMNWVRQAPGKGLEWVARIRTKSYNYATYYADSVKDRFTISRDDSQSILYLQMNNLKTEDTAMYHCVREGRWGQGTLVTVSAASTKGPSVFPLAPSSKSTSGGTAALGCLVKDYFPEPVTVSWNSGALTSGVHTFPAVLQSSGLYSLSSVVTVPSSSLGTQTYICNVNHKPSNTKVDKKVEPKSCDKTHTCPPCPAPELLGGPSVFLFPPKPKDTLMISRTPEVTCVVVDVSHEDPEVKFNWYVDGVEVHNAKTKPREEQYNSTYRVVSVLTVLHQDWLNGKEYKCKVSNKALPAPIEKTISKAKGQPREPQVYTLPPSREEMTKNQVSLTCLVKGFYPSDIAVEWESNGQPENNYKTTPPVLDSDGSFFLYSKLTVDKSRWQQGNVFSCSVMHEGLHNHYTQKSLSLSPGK
light: AGSQAVVTQESALTTSPGETVTLTCRSSTGAVTTSNYANWVQEKPDHLFTGLIGGTNNRPPGVPARFSGSLIGDKAALTITGAQIEDEAIYFCALWYSNHLVFGGGTKLTVLRTVAAPSVFIFPPSDEQLKSGTASVVCLLNNFYPREAKVQWKVDNALQSGNSQESVTEQDSKDSTYSLSSTLTLSKADYEKHKVYACEVTHQGLSSPVTKSFNRGECGGGGSGGGGSEVQLQESGPGLVRPSQTLSLTCTVSGYSITSDHAWSWVRQPPGRGLEWIGYISYSGITTYNPSLKSRVTMLRDTSKNQFSLRLSSVTAADTAVYYCARSLARTTAMDYWGQGSLVTVSSGGGGSGGGGSGGGGSDIQMTQSPSSLSASVGDRVTITCRASQDISSYLNWYQQKPGKAPKLLIYYTSRLHSGVPSRFSGSGSGTDFTFTISSLQPEDIATYYCQQGNTLPYTFGQGTKVEIK
notes: Human IgG1-based
[2]
  Kd: 3.5 nM
[3]
  Kd: 3.4 nM
